From patent US20220288226A1 (ENOSI LIFE SCIENCES, published 2022)
Each block holds one binder with its values, some of them ahead of it.

Tests used:
TNFR1 on cells = biological target: T1, TNFR1 on cells (human, UniProt P19438 30-455); assay: cell-based or functional assay
T1 sequence: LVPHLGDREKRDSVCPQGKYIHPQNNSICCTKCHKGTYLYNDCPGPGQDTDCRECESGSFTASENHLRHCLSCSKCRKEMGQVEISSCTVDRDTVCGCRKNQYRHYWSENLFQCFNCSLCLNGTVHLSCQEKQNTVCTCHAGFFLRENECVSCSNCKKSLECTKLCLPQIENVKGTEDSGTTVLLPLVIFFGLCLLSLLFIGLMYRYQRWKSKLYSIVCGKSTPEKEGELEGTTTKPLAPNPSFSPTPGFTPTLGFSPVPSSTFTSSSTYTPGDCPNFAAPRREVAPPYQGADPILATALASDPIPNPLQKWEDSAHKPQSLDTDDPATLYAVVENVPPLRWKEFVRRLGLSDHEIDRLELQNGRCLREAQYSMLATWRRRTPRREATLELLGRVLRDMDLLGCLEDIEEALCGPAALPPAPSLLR

[1] = biological target: T2, extracellular domain of TNFR-1 (human, UniProt P19438 30-211); assay: SPR (Biacore), Vhh on TNFR1 extracellular domain
T2 construct: The construct limits, tag, supplier and species are not restated there; also called TNFR1 extracellular domain; tumor necrosis factor receptor-1 (TNFR1)
T2 sequence: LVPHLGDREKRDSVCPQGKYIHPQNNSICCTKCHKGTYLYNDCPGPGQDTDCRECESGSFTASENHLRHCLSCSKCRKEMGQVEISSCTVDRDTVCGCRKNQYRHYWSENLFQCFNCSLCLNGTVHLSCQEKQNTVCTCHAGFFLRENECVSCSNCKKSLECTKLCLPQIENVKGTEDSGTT
Method: (§1) Each of Vhh 1-4 subsequently was tested in binding studies using the surface plasmon resonance (SPR) method (Sciences GL. Biacore Assay Handbook. General Electric Company (2012); and Richter et al. (2019) MAbs 11:166-177). Competition assays of Vhh inhibition of TNF-a binding to TNFR1 extracellular domain also were performed as described in Richter et al. (2019).

[2] = biological target: T2, extracellular domain of TNFR-1; assay: competition assay, Vhh inhibition of TNF binding to TNFR1; competitor TNF-a
Method: as §1

- TNF Dependent Bioassay (IC50): VCAM (TNFR1 on cells): 0.3 nM
- Kd [1]: 0.00066 nM
- IC50 [2]: ~1 nM
B1: Vhh-4 (VHH)
VHH: EVQLLESGGGLVQPGGSLRLSCAASGFTFAHETMVWVRQAPGKGLEWVSHIPPDGQDPFYADSVKGRFTISRDNSKNTLYLQMNSLRAEDTAVYHCALLPKRGPWFDYWGQGTLVTVSS
notes: also called DOM1h-131-206

- TNF Dependent Bioassay (IC50): VCAM (TNFR1 on cells): 3 nM
- Kd [1]: 1000 nM
B2: Vhh-2 (VHH, not shown: small tags and cut ends)
VHH: EVQLLESGGGLVQPGGSLRLSCAASGFTFSQYRMHWVRQAPGKSLEWVSSIDTRGSSTYYADPVKGRFTISRDNSKNTLYLQMNSLRAEDTAVYYCAKAVTMFSPFFDYWGQGTLV
notes: it is placed last only by convention; also called Recombinant human anti-TNFRSF1A single domain antibody
